Fewer inactive variants are shown than the library holds.
B1: TPR 5TU (parent)
chain: GGAUCUUCUCGAUCUAACAAAAAAGACAAAUCUGCCACAAAGCUUGAGAGCAUCUUCGGAUGCAGAGGCGGCAGCCUUCGGUGGCGCGAUAGCGCCAACGUUCUCAACUAUGACACGCAAAACGCGUGCUCCGUUGAAUGGAGUUUAUCAUG

Variants of: B1
Experiment: polymerase ribozyme fitness, log enrichment relative to wild type (log ratio); higher = more active; in vitro selection for triplet polymerase activity
Outline: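 For each subunit of a heterodimeric triplet polymerase ribozyme, a mutant library was built by PCR and transcribed, then taken through a single in vitro selection round in triplicate. Selection involved annealing to a biotinylated primer, the partner subunit and triplets, incubation frozen at −7 °C, gel excision of extended constructs, capture on streptavidin beads and RT-PCR. Genotypes were retained after Illumina sequencing of inputs and outputs only with ≥10 input reads and ≥1 read in each output. Fitness is defined as the logarithm of a genotype's enrichment relative to wild-type enrichment, using inverse-variance-weighted averages across replicates, with the logarithm taken to base 2.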

| Variant | polymerase ribozyme fitness (log ratio) |
| --- | --- |
| GGAUCUUCUCGAUCUAACAAAAAAGACAAAUUUGCCACAAAGCUUGAGAGCAUCUUCGGAUGCAGAGGCGGCAGCCUUCGUUGACGCGAUAGCCCCAACGUUCUCAACUAUGACACGCAAAACGCGUGCUCCGUUGAAUGGAGUUUAUCAUG | -3.46 |
| GGAUCUUCUCGAUCUAACAAAAAAGACAAAUCUGCUACAAAGCUUGAGAGCAUCUUCGGAGGCAGAGGCGGCAGCCUUCGGUGGCGCGAUAGCGCCAACGUUCUCAACUAUGACACGCAAAACGCGUGCUCCGUUGAAUGGAGUUUAUCAUG | -2.22 |
| GGAUCUUCUCGAUCUAACAAAAAAGACAAAUCUGCCACAAAUCUUGAGAGCAUCUUCGGAUGCAGAGGCGUCAGCCUUCGGUGGCGCUAUACCGCCCACGUUCUCAACUAUGACACGCAAAGCGCGUGCUCCGCUGAAUGGAGUUUAUCAUG | ≤ -4.2 |
| GGCUCUUCUCGAUCUAACAAAAAAGACUAAUCUGCCACAAAGCUUGAGAGCAUCUUCGGAUGCAGAGGCGGCAGCCAUCGGUGGCGCGAUAGUGCCAACGUUCUCAACUAUGACACGCAAAACGCGUGAUCCGUUGAAUGGAGUUUAGCAUG | ≤ -4.2 |
| GGAUCUUCUCGAUCUAACAAAAAAGACAAAUCUGCCACAAAGCUUGAGAGCAUCUUCGGCUGUAGAGGCGGCAGCCCUCGGUGGCGCGAUAGCGCCAACGUUCUCAACUAUGACACGCAAAACGCGUUCUCCGUUGAAUGGAGUUUAUCGUA | ≤ -4.2 |
| GGAUCUUCUCGAUCUAACAAAAAAGACAAAUCUGCCACAAAGGUUGAGAGCAUCUUCGGAUGCAGAGGCGGCAGCCUUCGGUGACGCGAUAGCGACAACGUUCUCUACUAUGACACGGAAAACGCGUGCUCCGUUGAAUGGAUUUUAUCAUG | ≤ -4.2 |
| GGAUCUUCUCGAUCUAACAAAAAAGACAAAUCUGCCACAAAGCUUGAGAGCAUCUUCGGUUGCAGAGGCGGCAGCCUUCGGUGGCGCGAUAGCGCCAACGUUCUCAACUAUGACACGCAAAACGCGUGCUCUGUUGAAUGGAGUUUAUCAUG | -0.719 |
| GGAUCUUCUCGAUCUAACAAAAAAGACAAAUCUGCCACAAAGCUUGAGAGCAUCUUCGGAUGCAGAGGCGGCAGCCUUCAGUGGCGCGAUCGCACCAACGUUCUCAACUAUGACACGCAAAACGCGUGCUCCGUUGAAUGGAGUUUAUCAUG | -4.16 |
| GGAUCUUCUCGAUCUAACAAAAAAGACAAAUCUGCCAUAAAGCUUGAGAGCAUCUUCGGAUGCAGAGGCGGCAGCCUUCGGUGGCGCGAUAGCGCGAACGUUCUCAACUAUGACACGCAAAACGCGUGCUCCGUUGAAUGGUGUUAAUCAUG | -1.67 |
| GGAUCUUCUCGAUCUAACAAAAAAGACAAAUCGGCCACAAAGCUUCAGAGCAUCUUCGGAUGCAGAGGCGACAGCCUGCGGUGGCGCGAGAGCGCCAACGUUCUCAACUCUGACACGCAAAACGCGCGCUCCGUUGAAUGCAGUUUAUCAUG | ≤ -4.2 |
| GGAUCUUCUCGAUCUAACAUAAAAGACAAAUCUGCCACAAAGCUUGAGAGCAUCAUCGGAUGCAGAGGCGGCAGCCUUCGGUGGAGCGAUAGCGCCAACGUUCUCAACUAUGACACGCAAAACGCGUGCUCCGUUGAAUGGAGUUUAUCAUG | -3.29 |
| GGAUCUUCUCGAUCUAACAAAAAAGACAAAUCUGCCACAAAGAUUGCGAGCAACUUCGGAUGCAGAGGCGGCAGCCUUCGGUGGCGCGAUGGCGCCAACGUUCUCAACUAUGACACGCAAAACGCGUGCUCCGUUGAAUGGAGUUUAUCAUG | ≤ -4.2 |
| GGAUCUUCUCGAUCUAACAAAAAAGACAAAUCUGCCACAAGGCUUGAGAGCAUCUUCGGAUGCAGAGGCGGCAGCCUUCGGUGGCGCGAUAGCGCCAUCGUUGUCAACUAUGACACGCAAAACGCGUGCUCCGUUGACUGGAGUUUAUCAUG | ≤ -4.2 |
| GGAUCUUCUCGAUCUAACAAAAAAGACAAAUCUGCCGCAAAGCUUGAGAGUAUCUUCGGAUGCAGUGGCGGCAGCCUUCGGUAGCGCGAUAGCGCCAACGUUCUCAACUAUGACACGCAAAACGCGUGCUCCGUUGAAUGGAGUUUAUCAGG | ≤ -4.2 |
| GGAUCUUCUCGAUCUAACAAAAAAGACAAAUCUGUCACAAAGCUUGAGAGCCUCUUCGGAUGCAGAGGCGGCAGCCUUCGAUGGCUCGAUAGCGACAACGUUCUCAACUAUGACACGCAAAACGCGUGCUCCGUUGAAUGGAGUUUAUCAUG | ≤ -4.2 |
| GGAUCUUCUCGGUCUAACAAAAAAGACAAAUCUGCCACAAAGCUUGAGAGCAUCUUCGGAUGCAGAGGCGGCAGCCUUCGGUGGCGCGAUAACGCCAACGUUCUCAACUAUGACACGCAAAACGCGAGCUCCGUUGAAAGGAAUUUAUCAUG | ≤ -4.2 |
| GGAUCUUCUCGAUCUAAGAAAAAAGACAAAUCUGCCACAAAGCUUGAGAGCAUCUACGGAUGCAGAGGCGGCUGCCUUCGGUCGCGCGAUAGCGCCAACGUUCUCAACUAUGACACGCAAAACGCGUGCUCCGUUGAAUGGAGUUUAUCAUG | -3.86 |
| GGAUCUUCGCGAUCUUACAAAAAAGACAAAUCUGCCACAAAGCUUGAGAGCAUCUUCGGAUGCAGAGGCGGCAGCCUUCAGUCGCGCGAUAGCGCCAACGUUCUCAACUAUGACACGCAAAACGCGUGCUCCGUUGAAUGGAGUUUAUCAUG | -4.08 |
| GGAUCUUGUCGCUCUAACAAAAGAGACAAAUCUGCCACAAAGCUUGAGAGCUUCUUUGGAUGCAGAGGCGGCAGCCUUCGGUGGCGCGAUAGAGGCAACGUUCUCAACUUUGACACGCAAAACGCGUGCUCCGUUGAAUGGAGUUUAUCAUG | ≤ -4.2 |

From the RNAGym collection of RNA variant scans (doi:10.1073/pnas.2313332121)
